This is an account of results in publication PMC5435986 (Nucleic Acids Research, 2017).

Test in all cases: ITC
The target of experiment [1] is KIX domain of CREB-binding protein (CBP), residues 586–672 (UniProt P45481 586-672).
The target in experiment [2] is F612A/D622A/R624A/K667E quadruple CBPKIX mutant (UniProt P45481 586-672, F612A | D622A | R624A | K667E).
The target of experiment [3] is Y650A/A654Q/Y658V triple CBPKIX mutant (UniProt P45481 586-672, Y650A | A654Q | Y658V).

A value given as a limit tells only on which side of the number the result lay.

Sequence of KIX domain of CREB-binding protein (CBP), residues 586–672 (P45481 586-672): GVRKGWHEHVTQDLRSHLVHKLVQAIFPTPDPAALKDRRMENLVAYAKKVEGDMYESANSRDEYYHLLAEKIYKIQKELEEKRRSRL
Sequence of Y650A/A654Q/Y658V triple CBPKIX mutant (P45481 586-672 Y650A/A654Q/Y658V): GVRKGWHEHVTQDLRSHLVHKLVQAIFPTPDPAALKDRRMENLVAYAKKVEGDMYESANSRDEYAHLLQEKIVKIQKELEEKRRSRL
Sequence of F612A/D622A/R624A/K667E quadruple CBPKIX mutant (P45481 586-672 F612A/D622A/R624A/K667E): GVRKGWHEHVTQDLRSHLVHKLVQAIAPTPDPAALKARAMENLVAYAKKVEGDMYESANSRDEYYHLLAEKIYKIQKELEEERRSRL

B1: transactivation domain 1 (TA1) of the p65 subunit of NF-κB, residues 521–551, L523Y (peptide, UniProt Q04206 521-551, looked up)
chain: PGYPNGLLSGDEDFSSIADMDFSALLSQISS
Turning to B1, the figures for the dissociation constant (Kd) in experiment [1] and in experiment [3] were 15 ± 3 µM and 13 ± 2 µM, respectively. For the same molecule, the “fold decrease in affinity against wild-type CBPKIX” value in experiment [2] was at least 100 fold.

B2: F542A mutant of p65TA1 (peptide, UniProt Q04206 521-551, looked up)
chain: PGYPNGLLSGDEDFSSIADMDASALLSQISS
With B2, the “fold decrease in affinity against wild-type p65TA1” value in experiment [1] was at least 100 fold.

B3: L545A mutant of p65TA1 (peptide, UniProt Q04206 521-551, looked up)
chain: PGYPNGLLSGDEDFSSIADMDFSAALSQISS
Consider B3, for which, in experiment [1], the “fold decrease in affinity against wild-type p65TA1” value was about 1.5 fold.

B4: L546A mutant of p65TA1 (peptide, UniProt Q04206 521-551, looked up)
chain: PGYPNGLLSGDEDFSSIADMDFSALASQISS
B4: in experiment [1], the “fold decrease in affinity against wild-type p65TA1” value was about 1.5 fold.

Usually Kd stands for the equilibrium constant for the complex coming apart.
